What was measured:
HPTPβ = HPTPβ (Homo sapiens, UniProt P23467); assay: HPTPβ inhibitory activity (IC50); format: biochemical
eNOS = eNOS and Akt phosphorylation in human endothelial cells (immunoprecipitation, immunoblotting); format: cell-based
Procedure: Confluent monolayers of human endothelial cells expressing FLAG-tagged eNOS cultured overnight in MCDB131 containing 0.1% BSA and then incubated with increasing concentrations of Compound 2 (0.3-30 μmol/L) or solvent (DMSO) for 30 minutes. In separate experiments, human endothelial cells were cultured overnight in MCDB131 containing 0.1% BSA and then incubated treated with Compound 2 (30 μmol/L) or solvent for 30 minutes and then stimulated with Yoda1 (1 μmol/L) or solvent for an additional 30 minutes. To inhibit Src, cells were pre-incubated with PP2 (1 μmol/L) for 30 min before incubation with Compound 2 and stimulation with Yoda1. After two washes with cold PBS, cells were collected with the aid of cell scrapers in a lysis buffer containing Tris/HCl pH 7.5 (50 mmol/L), NaCl (150 mmol/L), Triton X-100 (1%), NaPPi (10 mmol/L), NaF (20 mmol/L), orthovanadate (2 mmol/L), okadaic acid (10 nmol/L), β-glycerophosphate (50 mmol/L), phenylmethylsulfonyl fluoride (230 μmol/L), and EDTA-free protease inhibitors mix. The cell mixture was incubated for 30 minutes at 4° C. with vortexing, followed by centrifugation at 13000 rpm for 10 minutes at 4° C. To assess the eNOS-VE-PTP interaction, the following modifications were applied: 1) cells were incubated with the lysis buffer for one hour on an end-over-end rocker at 4° C. and gently vortexed until no cell clumps were observed; 2) lysates were not centrifuged after lysis. FLAG-tagged eNOS was immunoprecipitated using 30 μL of packed Anti-FLAG M2 Affinity Gel per mg protein lysate overnight. The recovered immunoprecipitates were washed three times with the lysis buffer, eluted by boiling samples for 10 minutes in SDS sample buffer, and then analyzed by SDS-PAGE and immunoblotting.
Protein samples were separated by SDS-PAGE and then transferred to […] nitrocellulose membranes. Membranes were incubated overnight with primary antibodies against phospho-Tyr81 eNOS, phospho-Ser1177 eNOS, phospho-Ser633 eNOS, eNOS, phospho-Ser473 Akt, Akt, ABL1, VE-PTP, GAPDH, β-actin, followed by species-specific secondary antibodies anti-IgG conjugated with HRP. Proteins were visualized by enhanced chemiluminescence.

subjects with DME = assay: Sitting systolic blood pressure and pulse rate in subjects with DME, Compound 1 with or without ranibizumab (Example 9, TABLE 27); format: in vivo, human
Procedure: A total of 144 subjects with DME were split into 3 treatment groups. Group 1 received a subcutaneous injection of Compound 1 (15 mg) and a sham intravitreal injection. Group 2 received a subcutaneous injection of Compound 1 (15 mg) and an intravitreal injection of ranibizumab (0.3 mg). Group 3 received a subcutaneous injection of a placebo, and an intravitreal injection of ranibizumab (0.3 mg).
FIG. 19 and TABLE 27 show the effect of Compound 1 treatment, both alone and in combination with ranibizumab, on the sitting systolic blood pressure of subjects.
FIG. 20 compares the effects of Compound 1 treatment, alone (Group 1), or in combination with ranibizumab (Group 2), on subjects with a baseline sitting systolic blood pressure of 140 mmHg or greater, versus those with a baseline sitting systolic blood pressure of less than 140 mmHg. […] The correlation between baseline sitting systolic blood pressure and the change in blood pressure from baseline seen 30 and 90 minutes following specified treatments is shown in FIG. 21 and FIG. 22, respectively.

Tie-2 = Tie-2 phosphorylation in hypoxic HUVECs; format: cell-based, human; settings: HUVECs hypoxic 16 h; ANG-1 alone 500 ng/mL
Procedure: HUVECs cultured under hypoxic conditions for 16 hours were treated with 5 μM Compound 1 for 10 minutes in the presence or absence of ANG-1 or ANG-2 (500 ng/mL). Untreated cells served as controls. The cells were then lysed and Tie-2 was immunoprecipitated and probed with anti-phosphotyrosine (p-Tyr) to indicate Tie-2 activation, or anti-Tie-2 as a loading control.

[1] = subjects with DME, Compound 1 15 mg subcutaneous, ranibizumab 0.3 mg intravitreal, 30 minutes post-dose
[2] = subjects with DME, Compound 1 15 mg subcutaneous, ranibizumab 0.3 mg intravitreal, 90 minutes post-dose

HPTPβ, sequence (P23467 23-1997): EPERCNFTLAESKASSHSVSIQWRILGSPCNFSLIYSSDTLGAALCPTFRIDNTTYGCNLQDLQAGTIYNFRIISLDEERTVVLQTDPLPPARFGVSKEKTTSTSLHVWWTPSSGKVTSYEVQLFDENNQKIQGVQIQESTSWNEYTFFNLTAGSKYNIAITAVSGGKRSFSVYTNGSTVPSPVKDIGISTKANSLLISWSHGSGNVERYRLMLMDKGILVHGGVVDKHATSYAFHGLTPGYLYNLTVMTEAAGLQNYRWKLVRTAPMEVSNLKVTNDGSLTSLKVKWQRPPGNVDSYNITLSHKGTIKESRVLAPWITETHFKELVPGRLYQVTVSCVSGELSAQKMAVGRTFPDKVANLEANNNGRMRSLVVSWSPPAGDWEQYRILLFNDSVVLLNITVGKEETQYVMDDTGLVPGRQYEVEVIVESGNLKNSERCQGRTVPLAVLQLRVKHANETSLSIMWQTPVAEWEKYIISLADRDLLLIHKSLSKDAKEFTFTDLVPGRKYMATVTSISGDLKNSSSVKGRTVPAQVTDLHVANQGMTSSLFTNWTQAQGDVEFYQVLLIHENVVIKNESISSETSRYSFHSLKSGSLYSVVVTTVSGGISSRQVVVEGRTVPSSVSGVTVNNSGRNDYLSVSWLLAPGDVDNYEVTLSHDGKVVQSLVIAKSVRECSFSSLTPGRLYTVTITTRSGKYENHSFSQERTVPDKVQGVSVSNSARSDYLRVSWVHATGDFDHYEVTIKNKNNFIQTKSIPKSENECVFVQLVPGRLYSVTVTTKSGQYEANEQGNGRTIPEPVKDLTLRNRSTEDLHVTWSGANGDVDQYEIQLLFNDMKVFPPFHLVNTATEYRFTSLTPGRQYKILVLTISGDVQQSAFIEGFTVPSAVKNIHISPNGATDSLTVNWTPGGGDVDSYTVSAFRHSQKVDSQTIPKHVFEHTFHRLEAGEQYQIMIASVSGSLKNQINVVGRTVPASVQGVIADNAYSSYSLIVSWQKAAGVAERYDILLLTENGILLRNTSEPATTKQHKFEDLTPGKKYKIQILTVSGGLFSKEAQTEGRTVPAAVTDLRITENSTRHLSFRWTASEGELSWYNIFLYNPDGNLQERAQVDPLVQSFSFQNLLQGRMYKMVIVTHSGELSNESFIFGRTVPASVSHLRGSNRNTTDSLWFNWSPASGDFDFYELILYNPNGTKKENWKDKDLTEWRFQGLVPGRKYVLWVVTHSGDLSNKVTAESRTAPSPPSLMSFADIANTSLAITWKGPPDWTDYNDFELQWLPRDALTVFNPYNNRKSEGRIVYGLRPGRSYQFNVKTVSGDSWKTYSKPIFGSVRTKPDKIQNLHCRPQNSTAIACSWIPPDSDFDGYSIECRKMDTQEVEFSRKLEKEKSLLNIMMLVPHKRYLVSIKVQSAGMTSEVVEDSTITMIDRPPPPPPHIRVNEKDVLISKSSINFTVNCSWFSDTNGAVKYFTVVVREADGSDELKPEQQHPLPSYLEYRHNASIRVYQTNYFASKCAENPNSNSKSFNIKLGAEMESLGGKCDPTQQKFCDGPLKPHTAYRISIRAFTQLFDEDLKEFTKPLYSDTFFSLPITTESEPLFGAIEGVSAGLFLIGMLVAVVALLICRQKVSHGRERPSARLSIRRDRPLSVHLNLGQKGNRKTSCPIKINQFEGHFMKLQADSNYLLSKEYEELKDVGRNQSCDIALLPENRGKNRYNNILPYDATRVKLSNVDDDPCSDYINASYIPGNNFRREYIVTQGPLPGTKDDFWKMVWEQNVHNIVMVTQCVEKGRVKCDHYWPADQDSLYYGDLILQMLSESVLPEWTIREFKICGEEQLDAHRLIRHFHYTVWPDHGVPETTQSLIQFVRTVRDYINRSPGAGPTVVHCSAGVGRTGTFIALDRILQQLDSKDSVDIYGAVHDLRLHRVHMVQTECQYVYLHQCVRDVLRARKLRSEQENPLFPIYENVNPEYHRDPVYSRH

COC(=O)N[C@@H](Cc1ccccc1)C(=O)N[C@@H](Cc1ccc(NS(=O)(=O)O)cc1)c1nc(-c2ccccc2)cs1 [AA21]
IC50 (HPTPβ): < 0.002 nM

CCCc1nc([C@H](Cc2ccc(NS(=O)(=O)O)cc2)NC(=O)OC(C)(C)C)cs1 [AA65]
IC50 (HPTPβ): 40 nM

CC(C)(C)n1nc(-c2ccc(Cl)cc2)c2c(N)ncnc21 [PP2, reference compound]
basal and Yoda1-induced tyrosine phosphorylation of eNOS (eNOS; PP2 1 μmol/L pre-incubation): significantly reduced

Clc1cccc(Cl)c1CSc1nnc(-c2cnccn2)s1 [Yoda1, reference compound]
phosphorylation of Akt and eNOS (eNOS; Yoda1 1 μmol/L, 30 min): elicited the phosphorylation of Akt on Ser473, and phosphorylation of eNOS on Ser1177 and Ser633

B1: ranibizumab (antibody, chains of the INN, looked up, V domains shown)
VH: EVQLVESGGGLVQPGGSLRLSCAASGYDFTHYGMNWVRQAPGKGLEWVGWINTYTGEPTYAADFKRRFTFSLDTSKSTAYLQMNSLRAEDTAVYYCAKYPYYYGTSHWYFDVWGQGTLVTVSS
VL: DIQLTQSPSSLSASVGDRVTITCSASQDISNYLNWYQQKPGKAPKVLIYFTSSLHSGVPSRFSGSGSGTDFTLTISSLQPEDFATYYCQQYSTVPWTFGQGTKVEIK
modifications: Fab
blood pressure change (subjects with DME; baseline sitting SBP 140 mmHg or greater, ranibizumab alone (Group 3)): Minimal change in blood pressure | decrease in sitting systolic blood pressure compared to baseline (subjects with DME; ranibizumab 0.3 mg intravitreal alone (Group 3), 30 and 90 minutes post-dose): not seen

B2: Placebo + Ranibizumab (antibody, chains of the INN, looked up, V domains shown)
VH: EVQLVESGGGLVQPGGSLRLSCAASGYDFTHYGMNWVRQAPGKGLEWVGWINTYTGEPTYAADFKRRFTFSLDTSKSTAYLQMNSLRAEDTAVYYCAKYPYYYGTSHWYFDVWGQGTLVTVSS
VL: DIQLTQSPSSLSASVGDRVTITCSASQDISNYLNWYQQKPGKAPKVLIYFTSSLHSGVPSRFSGSGSGTDFTLTISSLQPEDFATYYCQQYSTVPWTFGQGTKVEIK
modifications: Fab with placebo
Sitting systolic blood pressure, Change from pre-dose to 30 minutes post-dose, Max (subjects with DME; [1]): 31 mmHg | Sitting systolic blood pressure, Change from pre-dose to 30 minutes post-dose, Mean (SD) (subjects with DME; [1]): 2.2 (14.32) mmHg | Sitting systolic blood pressure, Change from pre-dose to 30 minutes post-dose, Median (subjects with DME; [1]): 1.0 mmHg | Sitting systolic blood pressure, Change from pre-dose to 30 minutes post-dose, Min (subjects with DME; [1]): −37 mmHg | Sitting systolic blood pressure, Change from pre-dose to 90 minutes post-dose, Max (subjects with DME; [2]): 35 mmHg | Sitting systolic blood pressure, Change from pre-dose to 90 minutes post-dose, Mean (SD) (subjects with DME; [2]): −0.1 (14.46) mmHg | Sitting systolic blood pressure, Change from pre-dose to 90 minutes post-dose, Median (subjects with DME; [2]): 2.0 mmHg | Sitting systolic blood pressure, Change from pre-dose to 90 minutes post-dose, Min (subjects with DME; [2]): −30 mmHg

B3: ANG-1: angiopoietin 1, an agonist of Tie-2 (protein, UniProt Q15389 16-498, looked up)
Angiopoietin-1: HIGCSNQRRSPENSGRRYNRIQHGQCAYTFILPEHDGNCRESTTDQYNTNALQRDAPHVEPDFSSQKLQHLEHVMENYTQWLQKLENYIVENMKSEMAQIQQNAVQNHTATMLEIGTSLLSQTAEQTRKLTDVETQVLNQTSRLEIQLLENSLSTYKLEKQLLQQTNEILKIHEKNSLLEHKILEMEGKHKEELDTLKEEKENLQGLVTRQTYIIQELEKQLNRATTNNSVLQKQQLELMDTVHNLVNLCTKEGVLLKGGKREEEKPFRDCADVYQAGFNKSGIYTIYINNMPEPKKVFCNMDVNGGGWTVIQHREDGSLDFQRGWKEYKMGFGNPSGEYWLGNEFIFAITSQRQYMLRIELMDWEGNRAYSQYDRFHIGNEKQNYRLYLKGHTGTAGKQSSLILHGADFSTKDADNDNCMCKCALMLTGGWWFDACGPSNLNGMFYTAGQNHGKLNGIKWHYFKGPSYSLRSTTMMIRPLDF
Tie-2 phosphorylation (p-Tyr) (Tie-2): did not increase Tie-2 phosphorylation

From patent US20200352914A1, “METHODS OF TREATING HYPERTENSION WITH ACTIVATORS OF TIE-2” (Aerpio Pharmaceuticals, Inc., priority 2019, published 2020)
